{"source": "paper PMC6317261", "about": "“Functional dissection of the developmentally restricted BEN domain chromatin boundary factor Insensitive” (Epigenetics & Chromatin, 2019)", "key": {"[1]": {"biological_target": "GST", "assay": "cross-linking; controls GST and Thioredoxin; the cross-linker is not named in the legend"}, "[2]": {"biological_target": "the molecule itself", "assay": "cross-linking; glutaraldehyde, 10 min at room temperature in PBS with 1 mM beta-mercaptoethanol; protein adjusted to 10 uM; SDS-PAGE, silver staining"}, "[3]": {"biological_target": "T1, HS:C-BEN (UniProt Q8SYK5 210-376)", "T1 sequence": "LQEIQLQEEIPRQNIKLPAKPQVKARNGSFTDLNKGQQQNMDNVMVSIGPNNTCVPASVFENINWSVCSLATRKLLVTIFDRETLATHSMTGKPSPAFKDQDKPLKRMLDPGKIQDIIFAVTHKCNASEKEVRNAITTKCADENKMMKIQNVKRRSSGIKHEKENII", "assay": "EMSA; multiple shifts, at lower protein than for P2; EMSA: 25 mM Tris-HCl pH 7.4, 100 mM KCl, 1 mM EDTA, 0.1 mM DTT, 0.1 mM PMSF, 0.03 mg/mL BSA, 10% glycerol, 0.5% Triton X-100, 0.25 mg/mL poly(dI-dC), 30 min room temperature", "conditions": "protein: recombinant; tags: N-terminal His-Sumo; chain copies: 2; label: 5'-32P; blunt"}, "[4]": {"biological_target": "T2, HT:F-Insv (UniProt Q8SYK5 1-376)", "T2 sequence": "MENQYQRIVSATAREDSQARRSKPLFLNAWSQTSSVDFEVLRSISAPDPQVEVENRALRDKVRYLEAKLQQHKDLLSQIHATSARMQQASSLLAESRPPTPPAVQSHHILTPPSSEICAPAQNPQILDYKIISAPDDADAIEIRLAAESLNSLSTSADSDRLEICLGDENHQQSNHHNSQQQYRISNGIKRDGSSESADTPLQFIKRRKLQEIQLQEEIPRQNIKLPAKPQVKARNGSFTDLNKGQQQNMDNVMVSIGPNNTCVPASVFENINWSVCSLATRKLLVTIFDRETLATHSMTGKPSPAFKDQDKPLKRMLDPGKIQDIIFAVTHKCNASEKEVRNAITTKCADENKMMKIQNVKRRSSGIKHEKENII", "assay": "EMSA; at least three shifts; EMSA: 25 mM Tris-HCl pH 7.4, 100 mM KCl, 1 mM EDTA, 0.1 mM DTT, 0.1 mM PMSF, 0.03 mg/mL BSA, 10% glycerol, 0.5% Triton X-100, 0.25 mg/mL poly(dI-dC), 30 min room temperature", "conditions": "protein: recombinant; tags: N-terminal His-Thioredoxin; label: 5'-32P; blunt"}, "[5]": {"biological_target": "the molecule itself", "assay": "SEC; Superose 6 10/300 column; 500 uL of the eluted protein loaded; fractions analysed by SDS-PAGE and EMSA; sizes estimated against Bio-Rad standards"}}, "note": "Where “and” joins values, the source holds several entries; their conditions need not be identical. Equal entries are not always repeated."}
{"molecule": "GST (natural protein)", "values": [{"measurement": "stoichiometry N", "setting": "[1]", "value": 2}]}
{"molecule": "HT:N1-267 (domain or fragment, Drosophila, UniProt Q8SYK5 1-267, looked up, source: E. coli, purified (Ni-NTA Agarose); not shown: His6, N-terminal, kept; Thioredoxin, N-terminal, kept) MENQYQRIVSATAREDSQARRSKPLFLNAWSQTSSVDFEVLRSISAPDPQVEVENRALRDKVRYLEAKLQQHKDLLSQIHATSARMQQASSLLAESRPPTPPAVQSHHILTPPSSEICAPAQNPQILDYKIISAPDDADAIEIRLAAESLNSLSTSADSDRLEICLGDENHQQSNHHNSQQQYRISNGIKRDGSSESADTPLQFIKRRKLQEIQLQEEIPRQNIKLPAKPQVKARNGSFTDLNKGQQQNMDNVMVSIGPNNTCVPAS", "values": [{"measurement": "stoichiometry N", "setting": "[2]", "value": 4}]}
{"molecule": "2xPal (dsDNA) DNA 1: CTCGAGGGGTTTCTTTCCCAATTGGAAATGCGTCCTGTCGAGGGGTTTCTTTCCCAATTGGAAATGCGTCCTGTCGACGGTATCGATAAGCTTGATATCGAATTCCTGCAGCCCGGGGATCC DNA 2: GGATCCCCGGGCTGCAGGAATTCGATATCAAGCTTATCGATACCGTCGACAGGACGCATTTCCAATTGGGAAAGAAACCCCTCGACAGGACGCATTTCCAATTGGGAAAGAAACCCCTCGAG", "values": [{"measurement": "binding result", "setting": "[3]", "value": "binds"}, {"measurement": "binding result", "setting": "[4]", "value": "binds"}]}
{"molecule": "His-Thioredoxin F-Insv (HT:F-Insv) (natural protein, Drosophila, UniProt Q8SYK5 1-376, looked up, Insensitive (Insv), Drosophila, full-length; also called HT:Insv; HT-Insv; source: E. coli, purified (Ni-NTA Agarose); not shown: His6, N-terminal, kept; Thioredoxin, N-terminal, kept) MENQYQRIVSATAREDSQARRSKPLFLNAWSQTSSVDFEVLRSISAPDPQVEVENRALRDKVRYLEAKLQQHKDLLSQIHATSARMQQASSLLAESRPPTPPAVQSHHILTPPSSEICAPAQNPQILDYKIISAPDDADAIEIRLAAESLNSLSTSADSDRLEICLGDENHQQSNHHNSQQQYRISNGIKRDGSSESADTPLQFIKRRKLQEIQLQEEIPRQNIKLPAKPQVKARNGSFTDLNKGQQQNMDNVMVSIGPNNTCVPASVFENINWSVCSLATRKLLVTIFDRETLATHSMTGKPSPAFKDQDKPLKRMLDPGKIQDIIFAVTHKCNASEKEVRNAITTKCADENKMMKIQNVKRRSSGIKHEKENII", "values": [{"measurement": "stoichiometry N", "setting": "[5]", "value": "2 and 4"}]}
